Experiments:
[1] = target: hBAFF-R-hFc-His fusion protein (human) (UniProt Q96RJ3); assay: yeast surface display flow cytometry; hBAFF-R-hFc-His (concentration not given)
[2] = target: hBAFF-R-hFc-His fusion protein (human) (UniProt Q96RJ3); assay: yeast surface display flow cytometry; hBAFF-R-hFc-His (concentration not given); other quadrants Q1 0.35, Q3 13.0, Q4 28.5
[3] = target: hBAFF-R-hFc-His fusion protein (human) (UniProt Q96RJ3); assay: yeast surface display flow cytometry; hBAFF-R-hFc-His (concentration not given); other quadrants Q1 0.17, Q3 10.5, Q4 22.3
[4] = target: hBAFF-R-hFc-His fusion protein (human) (UniProt Q96RJ3); assay: yeast surface display flow cytometry; hBAFF-R-hFc-His (concentration not given); other quadrants Q1 0.34, Q3 5.47, Q4 34.4
[5] = target: hBAFF-R-hFc-His fusion protein (human) (UniProt Q96RJ3); assay: yeast surface display flow cytometry, before challenge: 100 pM hBAFFR-Fc biotin for 1 hr at RT; other quadrants Q1 44.1, Q3 9.77E-3, Q4 14.6
[6] = target: hBAFF-R-hFc-His fusion protein (human) (UniProt Q96RJ3); assay: yeast surface display flow cytometry, after challenge: 100 pM hBAFFR-Fc biotin, then 1 mM (so in the source); paragraph 270 says 1 uM) nonbiotinylated hBAFFR-Fc, t = 120 min
[7] = target: hBAFF-R-hFc-His fusion protein (human) (UniProt Q96RJ3); assay: yeast surface display flow cytometry, after challenge: 100 pM hBAFFR-Fc biotin for 1 hr at RT, then 1 mM (so in the source); paragraph 270 says 1 uM) nonbiotinylated hBAFFR-Fc, t = 120 min; other quadrants Q1 64.5, Q3 0.050, Q4 21.0
[8] = target: PSR; assay: PSR assay: antibody on Protein A coated beads, biotinylated PSR, SA-PE, flow cytometry; +PSR panel, other quadrants Q1 72.8, Q3 7.72E-3, Q4 0.29; without PSR Q2 0
[9] = target: human BAFF-R expressed on cells (hBAFF-R-CHO isogenic CHO cells; BAFF-R+ cancer cells) (human) (UniProt Q96RJ3); assay: cell-based blocking assay; MFI of BAFF-biotin bound to CHO cells expressing human BAFF-R in the presence of the control antibody
[10] = target: PSR; assay: PSR assay: antibody on Protein A coated beads, biotinylated PSR, SA-PE, flow cytometry; +PSR panel, other quadrants Q1 98.8, Q3 0, Q4 0.048

“ianalumab-based scFv benchmark control displayed on yeast” showed a Gated lane, percent of events in the drawn gate [1] of 0.3, a Gated, percent of events in the drawn gate [1] of 0.72 and a Q2, percent of events positive for scFv expression and for antigen binding [2] of 58.2. For the same substance, the Q2, percent of events positive for scFv expression and for antigen binding [3] was 67, the Q2, percent of events positive for scFv expression and for antigen binding [4] was 59.5 and the Q2, percent of events positive for scFv expression and for antigen binding, before challenge [5] was 41.3. The Iana (drawn gate), percent of events, after challenge [6] was 0.13 and the Q2, percent of events positive for scFv expression and for antigen binding, after challenge [7] was 14.4.

Ixekuzumab (antibody) gave a Q2, percent of beads positive for FITC and for PSR binding (PE), +PSR [8] of 27.1.

For Human IgG1k (antibody), the Minimum (MFI) [9] was 68000 MFI.

With Trastuzumab (antibody) the Q2, percent of beads positive for FITC and for PSR binding (PE), +PSR [10] was 1.18.

Source: patent US20240228645A1
